Data taken from article PMC5017906.

Molecular target: nAChRs on CA1 hippocampal interneurons (not stated (rat brain slices in the text, NMRI mice in the methods))

attenuation of inward currents induced by the non-specific nAChR agonist DMPP (50 μM) in CA1 hippocampal interneurons in the presence of 6 μM Lypd6, whole-cell patch clamp: 74.8%
average reduction of inward currents induced by nicotine (100 μM) in CA1 hippocampal interneurons in the presence of 6 μM Lypd6, whole-cell patch clamp at −60 mV: 57.4%
B1: Recombinant human GST-tagged Lypd6 (LY6/PLAUR domain-containing 6), Q86Y78 23-147 (natural protein)
chain: AQSRDFTVKDIIYLHPSTTPYPGGFKCFTCEKAADNYECNRWAPDIYCPRETRYCYTQHTMEVTGNSISVTKRCVPLEECLSTGCRDSEHEGHKVCTSCCEGNICNLPLPRNETDATFATTSPIN
